Test results published in paper PMC3421062.

Experiments:
[1] = target: N130-V5 recombinant protein (NAC1 BTB domain only) (UniProt Q96RE7); test: pull-down
[2] = target: NAC1-V5 recombinant protein (UniProt Q96RE7); test: pull-down

purified recombinant actin (Cytoskeleton Inc.) (from UniProt P60709 1-375) (natural protein)
Kd [1]: 520 nM
Kd [2]: 780 nM
